Experiments:
[1] = system: iPS cells; experiment: Cell growth property evaluation 2 (2-mercaptoethanol concentration in Essential 8); format: cell-based, human; details: RCP-11 100 μg/ml, 72 hours
Experimental: A cell culture surface coated with RCP-11 was prepared in the same manner as in <Cell growth property evaluation 1> of Example 1. iPS cells collected in the same manner as in <Cell growth property evaluation 1> were suspended in the respective media composed as shown in Table 12 and seeded into wells at a cell density of 10,000 cells/well. After the cells were cultured for 72 hours, the number of cells were quantified in the same manner as in <Cell growth property evaluation 1>, and the cell growth properties were evaluated based on a cell growth rate which is a ratio calculated by regarding the number of cells cultured using RPC-11 as being 100%.

[2] = Evaluation 2 about amount of residual polypeptide adsorbed (2-mercaptoethanol in PBS); format: physicochemical; details: PBS with 2-mercaptoethanol 8.96 μM to 89.6 mM, 37° C.; FIG. 7
Experimental: A cell culture surface coated with RCP-11 was prepared in the same manner as in Example 3, and then PBS containing 2-mercaptoethanol was added thereto such that the final concentration of 2-mercaptoethanol became 89.6 mM (0.7% by mass), 8.96 mM (0.07% by mass), 895.94 μM (0.007% by mass), 89.59 μM (0.0007% by mass), or 8.96 μM (0.00007% by mass), followed by incubation at 37° C. for a predetermined time. Thereafter, in the same manner as in Example 3, the amount of RCP-11 adsorbed was determined, and the residual rate of the polypeptide adsorbed was obtained. In FIG. 7, the amount of residual RCP-11 adsorbed is expressed as a ratio calculated by regarding the amount of RCP-11 adsorbed immediately after the starting of incubation as being 100%. Furthermore, “2-ME” indicates 2-mercaptoethanol.

[3] = Example 5: residual rate of RCP-11 adsorbed after 2-mercaptoethanol pretreatment; format: physicochemical; details: 24 hours
Experimental: In the same manner as in Evaluation 1 about amount of residual polypeptide adsorbed> of Example 3, RCP-11 was added to the respective wells, thereby obtaining a coated cell culture surface. Thereafter, a 2-mercaptoethanol/PBS solution of which the concentration was adjusted in advance as shown in Table 14 was added thereto, followed by incubation for 24 hours, thereby accelerating the desorption of RCP-11.
After the cells were cultured for 72 hours, the number of cells was quantified in the same manner as in <Cell growth property evaluation 1> of Example 3. In the table, each of the residual rate of RCP-11 adsorbed and the cell growth rate is expressed as a ratio calculated by regarding the residual rate of the polypeptide adsorbed and the cell growth rate in the case where the pretreatment with PBS is performed as being 100%.

[4] = Evaluation of adsorbability with respect to cell culture surface (OPA fluorescence); format: physicochemical; details: FIG. 1; 0 to 200 pmol/cm^2 added, 2 hours at 37° C., washed twice with PBS
Experimental: Each of the polypeptides of RCP-1 to RCP-11 and RCP-21 to RCP-26 obtained as above was diluted with a predetermined buffer such that they could be added to wells at a predetermined final concentration of 0 pmol/cm^2 to 200 pmol/cm^2. Thereafter, each of the polypeptides was added in an amount of 64 μL to a plasma-treated 96-well plate made of polystyrene (Tissue Culture-Treated, Falcon). Each of the polypeptides was allowed to adsorb onto the plate by being incubated for 2 hours at 37° C., and then the wells were washed twice with PBS, thereby obtaining surfaces coated with each of the polypeptides of RCP-1 to RCP-11 and RCP-21 to RCP-26.
Among the surfaces coated with each of the polypeptides obtained as above, the surfaces coated with RCP-1 and RCP-21 to RCP-26 were applied with 64 μL of a borate buffer and 64 μL of 1 N NaOH, followed by incubation for 24 hours at 80° C. and 100% humidity. After the resultant was air-cooled, 75 μL of a borate buffer was added to each well, and 50 μL of a reaction solution obtained by mixing OPA (o-phthalaldehyde: Wako Pure Chemical Industries, Ltd./methanol solution (160 mg/ml)) with N-acetyl-L-cysteine (NAC: Wako Pure Chemical Industries, Ltd.)/borate buffer solution (2 mg/ml) at a ratio of 1:100 (mass ratio) was further added thereto. After incubation for 30 minutes at 40° C., the fluorescence intensity thereof was measured by using an Envision Multilabel Counter (PerkinElmer Inc.) (excitation 355 nm/fluorescence 486 nm). A calibration curve was separately prepared from each of the polypeptide solutions so as to calculate the amount of the polypeptide adsorbed. In FIG. 1, a black rhombus indicates RCP-1, a black square indicates RCP-21, a black triangle indicates RCP-22, a black circle indicates RCP-23, a white rhombus indicates RCP-24, a white square indicates RCP-25, and a white triangle indicates RCP-26.

[5] = system: iPS cells; experiment: Growth evaluation, growth curves over 8 days; format: cell-based, human
Experimental: The iPS cells collected in the same manner as in <Cell adhesiveness evaluation 1> were seeded into a 96-well plate, onto which RCP-1, RCP-21, and natural human vitronectin were adsorbed, at a ratio of 250 cells/well and cultured for 8 days in a 5% CO2 incubator at 37° C. The number of adhesive cells after different days of culture was measured in the same manner as in <Cell adhesiveness evaluation 1>, thereby obtaining growth curves. […] In FIG. 2, a black rhombus indicates a case using RCP-1, and a black square indicates a case using RCP-21.
From the increase and decrease in the obtained number of cells, the doubling time was calculated. As a result, it was confirmed that it takes 46.4±2.1 hours for the number of cells to be doubled in a case where RCP-1 is used, and 67.7±2.1 hours in a case where RCP-21 is used.

[6] = system: iPS cells; experiment: Cell adhesiveness evaluation 3 (RCP-1 added amount); format: cell-based, human; details: for Cell adhesion rate (%): natural vitronectin 130 pmol/cm^2 = 100%, n=3
Experimental: The cell adhesiveness was evaluated in the same manner as in <Cell adhesiveness evaluation 1>, except that RCP-1 was used after the concentration thereof was adjusted to 125 pmol/cm^2 to 1,000 pmol/cm^2 by using PBS. In Table 10, the cell adhesion rate is expressed as a ratio calculated by regarding a cell adhesion rate with respect to the cell culture surface, onto which natural vitronectin is adsorbed at a concentration of 130 pmol/cm^2, as being 100%. n=3.

B1: RCP-11: recombinant polypeptide for culture, SEQ ID NO: 25; vitronectin positions 1-55, 269-277, 295-341, 342-373, C274S (protein)
chain: MDQESCKGRCTEGFNVDKKCQCDELCSYYQSCCTDYTAECKPQVTRGDVFTMPEDESQEESEGSEDIFELLFWGRTSAGTRQPQFISRDWHGVPGQVDAAMAGRIYISGMAPRPSLAKKQRFRHRNRKGYRSQRGHSRGRNQN
modifications: Vitronectin-derived Recombinant Protein (RCP-11)
notes: vitronectin positions 1-55, 269-277, 295-341, 342-373, C274S
[1]; Essential8, 2-mercaptoethanol 0, 10,000 cells/well, this = 100%
  Cell growth rate: 100%
[1]; Essential8, 2-mercaptoethanol 10 μM (0.0000078% by mass)
  Cell growth rate: 104.1%
[1]; Essential8, 2-mercaptoethanol 10 μM (0.000078% by mass)
  Cell growth rate: 97.3%
[1]; Essential8, 2-mercaptoethanol 100 μM (0.00078% by mass)
  Cell growth rate: 49.2%
[1]; Essential8, 2-mercaptoethanol 1 mM (0.0078% by mass)
  Cell growth rate: 38.7%
[1]; Essential8, 2-mercaptoethanol 10 mM (0.078% by mass)
  Cell growth rate: 40.2%
[2]
  amount of residual RCP-11 versus 2-mercaptoethanol concentration: tends to decrease as the concentration of 2-mercaptoethanol increases
[3]; pretreatment 2-Mercaptoethanol 8.96 μM (0.00007% by mass), PBS pretreatment = 100%
  Residual rate of RCP-11 adsorbed (%): 82.2%
[3]; pretreatment 2-Mercaptoethanol 895.94 μM (0.007% by mass), PBS pretreatment = 100%
  Residual rate of RCP-11 adsorbed (%): 77.4%
[3]; pretreatment 2-Mercaptoethanol 89.6 mM (0.7% by mass), PBS pretreatment = 100%
  Residual rate of RCP-11 adsorbed (%): 56.6%
[3]; pretreatment PBS, this = 100%
  Residual rate of RCP-11 adsorbed (%): 100%

B2: RCP-1: recombinant polypeptide for culture, SEQ ID NO: 15; human vitronectin positions 1-55 and 269-459 with N-terminal methionine (protein)
chain: MDQESCKGRCTEGFNVDKKCQCDELCSYYQSCCTDYTAECKPQVTRGDVFTMPEDEPSQEECEGSSLSAVFEHFAMMQRDSWEDIFELLFWGRTSAGTRQPQFISRDWHGVPGQVDAAMAGRIYISGMAPRPSLAKKQRFRHRNRKGYRSQRGHSRGRNQNSRRPSRATWLSLFSSEESNLGANNYDDYRMDWLVPATCEPIQSVFFFSGDKYYRVNLRTRRVDTVDPPYPRSIAQYWLGCPAPGHL
modifications: Vitronectin-derived Recombinant Protein (RCP-1)
[4]
  adsorbability with respect to the plate: excellent adsorbability
[5]; 250 cells/well, cultured for 8 days
  doubling time: 46.4 ± 2.1 h
[5]; FIG. 2
  cell growth properties: higher cell growth properties compared to RCP-21
[6]; added amount 125 pmol/cm^2
  Cell adhesion rate (%): 90.3 ± 25.3%
[6]; added amount 250 pmol/cm^2
  Cell adhesion rate (%): 89.2 ± 10.6%
[6]; added amount 500 pmol/cm^2
  Cell adhesion rate (%): 108.8 ± 23.0%
[6]; added amount 1000 pmol/cm^2
  Cell adhesion rate (%): 98.5 ± 17.2%
[6]; added amount equal to or greater than 125 pmol/cm^2
  adhesiveness of iPS cells: equivalent to the cell adhesion rate of the natural vitronection

Reference: patent US10487307B2, “Culture method for pluripotent stem cells” (FUJIFILM CORPORATION, priority 2013, dated 2019)
